Among the data in article PMC4113718 (Biochemistry, 2013) are Kd values, retold here.

Read-outs that look alike come from different tables or passages of the source.

Assay [1] concerns the target T1, N-Terminal FITC labeled ubiquitin (UniProt P0CG47 1-76, FITC on the N-terminus). Kind of assay: binding of a fluorescent ligand to cells.
In assay [2] the target is T1, N-Terminal FITC labeled ubiquitin. Kind of assay: binding of a fluorescent ligand to cells. This is another data set of the same source.

B1: CXC chemokine receptor (CXCR) 4 on BV-2 cells (receptor, mouse (endogenous in BV-2), UniProt P70658 1-359, looked up)
chain: MEPISVSIYTSDNYSEEVGSGDYDSNKEPCFRDENVHFNRIFLPTIYFIIFLTGIVGNGLVILVMGYQKKLRSMTDKYRLHLSVADLLFVITLPFWAVDAMADWYFGKFLCKAVHIIYTVNLYSSVLILAFISLDRYLAIVHATNSQRPRKLLAEKAVYVGVWIPALLLTIPDFIFADVSQGDISQGDDRYICDRLYPDSLWMVVFQFQHIMVGLILPGIVILSCYCIIISKLSHSKGHQKRKALKTTVILILAFFACWLPYYVGISIDSFILLGVIKQGCDFESIVHKWISITEALAFFHCCLNPILYAFLGAKFKSSAQHALNSMSRGSSLKILSKGKRGGHSSVSTESESSSFHSS
B1: the equilibrium dissociation constant (Kd) (in general, a measure of binding affinity in units of concentration) in assay [1] was 119 nM; in assay [2] it was 154 nM.
